The supplement of paper PMC10065799, “High-throughput profiling of sequence recognition by tyrosine kinases and SH2 domains using bacterial peptide display” (eLife, 2023)

Columns and labels:
SHP2-C SH2 = assay: SH2 binding enrichment of the phosphorylated peptide, bacterial display (enrichment ratio); higher = better substrate or ligand; peptides without Tyr show the background
c-Src SH2 = assay: as above
Grb2 SH2 = Grb2 SH2 (UniProt P62993); assay: as above
Fer (mouse) = assay: phosphorylation enrichment, bacterial display (enrichment ratio); higher = better substrate or ligand; peptides without Tyr show the background
c-Abl (mouse) = assay: as above
Jak2 = Jak2 (UniProt O60674); assay: as above
AncSZ = assay: as above
Fyn = Fyn (UniProt P06241); assay: as above
FGFR1 = FGFR1 (UniProt P11362); assay: as above
c-Src = assay: as above
EPHB2 = EPHB2 (UniProt P29323); assay: as above
Hck = Hck (UniProt P08631); assay: as above
EPHB1 = EPHB1 (UniProt P54762); assay: as above
FGFR3 = FGFR3 (UniProt P22607); assay: as above
MERTK = MERTK (UniProt Q12866); assay: as above
Fes = Fes (UniProt P07332); assay: as above
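For SH2 binding enrichment of the phosphorylated peptide, bacterial display in this document: peptide library displayed on the E. coli surface as eCPX fusions, selected cells deep-sequenced, score is each peptide's frequency after selection divided by its frequency in the input.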
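For phosphorylation enrichment, bacterial display in this document: 11-residue human phosphosite peptides and single-mutation variants displayed on the E. coli surface, counted by deep sequencing, each peptide's frequency after selection divided by its frequency in the unselected input library; frequency after pTyr selection over input frequency; kinase dosed for 20-30% of maximal phosphorylation in three min.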

Sequence of Fyn (P06241 whole entry, looked up): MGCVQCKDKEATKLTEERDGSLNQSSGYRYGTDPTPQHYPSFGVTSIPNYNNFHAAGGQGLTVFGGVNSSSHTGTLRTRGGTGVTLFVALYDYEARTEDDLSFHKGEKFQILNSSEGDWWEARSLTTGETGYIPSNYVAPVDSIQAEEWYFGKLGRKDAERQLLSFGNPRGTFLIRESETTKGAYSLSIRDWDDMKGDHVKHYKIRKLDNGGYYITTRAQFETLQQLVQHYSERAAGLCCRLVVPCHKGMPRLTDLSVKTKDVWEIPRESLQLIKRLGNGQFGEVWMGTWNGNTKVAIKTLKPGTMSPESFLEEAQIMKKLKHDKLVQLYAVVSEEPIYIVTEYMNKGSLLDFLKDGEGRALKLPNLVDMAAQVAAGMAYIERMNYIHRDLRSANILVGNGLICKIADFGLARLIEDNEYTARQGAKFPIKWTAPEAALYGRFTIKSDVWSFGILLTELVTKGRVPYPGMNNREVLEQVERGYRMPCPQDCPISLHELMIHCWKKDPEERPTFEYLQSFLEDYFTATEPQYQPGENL
Sequence of Jak2 (O60674 whole entry, looked up): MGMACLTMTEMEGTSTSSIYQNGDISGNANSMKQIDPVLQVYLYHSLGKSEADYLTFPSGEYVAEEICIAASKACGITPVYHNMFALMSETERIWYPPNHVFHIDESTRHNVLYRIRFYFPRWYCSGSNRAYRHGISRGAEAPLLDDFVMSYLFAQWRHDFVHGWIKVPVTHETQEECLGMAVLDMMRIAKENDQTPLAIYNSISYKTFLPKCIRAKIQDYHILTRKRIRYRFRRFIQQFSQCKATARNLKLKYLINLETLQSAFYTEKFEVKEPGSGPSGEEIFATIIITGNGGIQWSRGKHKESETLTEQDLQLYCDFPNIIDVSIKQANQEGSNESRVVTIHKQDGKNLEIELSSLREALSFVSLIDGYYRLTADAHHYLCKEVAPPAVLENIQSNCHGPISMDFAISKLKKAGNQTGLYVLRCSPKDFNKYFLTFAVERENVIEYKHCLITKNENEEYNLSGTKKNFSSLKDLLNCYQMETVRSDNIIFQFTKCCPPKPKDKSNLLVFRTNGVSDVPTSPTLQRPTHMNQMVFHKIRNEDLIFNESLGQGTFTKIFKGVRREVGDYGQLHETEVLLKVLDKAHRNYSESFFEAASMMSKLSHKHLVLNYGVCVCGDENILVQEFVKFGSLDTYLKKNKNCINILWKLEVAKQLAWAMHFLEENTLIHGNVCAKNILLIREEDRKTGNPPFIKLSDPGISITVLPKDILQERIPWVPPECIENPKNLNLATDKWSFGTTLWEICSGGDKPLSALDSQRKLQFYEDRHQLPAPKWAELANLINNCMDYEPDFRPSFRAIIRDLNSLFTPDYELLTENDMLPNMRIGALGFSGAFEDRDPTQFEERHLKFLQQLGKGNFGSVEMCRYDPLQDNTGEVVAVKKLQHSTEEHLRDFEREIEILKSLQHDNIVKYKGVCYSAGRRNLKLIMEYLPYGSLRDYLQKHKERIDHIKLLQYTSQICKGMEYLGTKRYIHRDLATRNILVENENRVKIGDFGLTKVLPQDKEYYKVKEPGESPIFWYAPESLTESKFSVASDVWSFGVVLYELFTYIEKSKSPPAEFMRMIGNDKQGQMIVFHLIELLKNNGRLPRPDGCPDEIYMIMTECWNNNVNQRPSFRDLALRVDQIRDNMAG
Sequence of MERTK (Q12866 whole entry, looked up): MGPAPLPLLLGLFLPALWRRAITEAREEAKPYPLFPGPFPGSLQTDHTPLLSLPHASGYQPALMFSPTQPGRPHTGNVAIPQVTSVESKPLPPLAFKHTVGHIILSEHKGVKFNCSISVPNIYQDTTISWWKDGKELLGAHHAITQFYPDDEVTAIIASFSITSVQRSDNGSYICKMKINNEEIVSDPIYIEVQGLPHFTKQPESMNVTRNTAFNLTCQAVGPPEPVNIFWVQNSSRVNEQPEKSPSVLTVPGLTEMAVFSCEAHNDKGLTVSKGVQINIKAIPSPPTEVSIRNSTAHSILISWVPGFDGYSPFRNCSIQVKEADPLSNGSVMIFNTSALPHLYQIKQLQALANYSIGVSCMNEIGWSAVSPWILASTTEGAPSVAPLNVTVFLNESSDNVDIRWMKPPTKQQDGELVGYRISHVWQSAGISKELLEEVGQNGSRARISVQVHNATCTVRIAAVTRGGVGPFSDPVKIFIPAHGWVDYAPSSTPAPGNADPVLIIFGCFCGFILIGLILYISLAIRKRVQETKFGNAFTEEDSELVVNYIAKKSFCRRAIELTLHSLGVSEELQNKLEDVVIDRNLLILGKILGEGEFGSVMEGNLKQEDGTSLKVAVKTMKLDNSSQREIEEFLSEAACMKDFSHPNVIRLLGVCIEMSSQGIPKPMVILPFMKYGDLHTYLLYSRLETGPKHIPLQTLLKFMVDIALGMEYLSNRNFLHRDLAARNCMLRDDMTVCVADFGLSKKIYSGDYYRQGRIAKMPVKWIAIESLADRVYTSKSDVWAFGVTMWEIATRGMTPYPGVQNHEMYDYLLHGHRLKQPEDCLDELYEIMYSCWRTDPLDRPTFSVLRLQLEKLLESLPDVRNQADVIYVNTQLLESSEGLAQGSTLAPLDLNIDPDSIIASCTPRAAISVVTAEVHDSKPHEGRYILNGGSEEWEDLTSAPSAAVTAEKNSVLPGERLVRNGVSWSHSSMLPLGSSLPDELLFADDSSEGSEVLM
Sequence of FGFR1 (P11362 whole entry, looked up): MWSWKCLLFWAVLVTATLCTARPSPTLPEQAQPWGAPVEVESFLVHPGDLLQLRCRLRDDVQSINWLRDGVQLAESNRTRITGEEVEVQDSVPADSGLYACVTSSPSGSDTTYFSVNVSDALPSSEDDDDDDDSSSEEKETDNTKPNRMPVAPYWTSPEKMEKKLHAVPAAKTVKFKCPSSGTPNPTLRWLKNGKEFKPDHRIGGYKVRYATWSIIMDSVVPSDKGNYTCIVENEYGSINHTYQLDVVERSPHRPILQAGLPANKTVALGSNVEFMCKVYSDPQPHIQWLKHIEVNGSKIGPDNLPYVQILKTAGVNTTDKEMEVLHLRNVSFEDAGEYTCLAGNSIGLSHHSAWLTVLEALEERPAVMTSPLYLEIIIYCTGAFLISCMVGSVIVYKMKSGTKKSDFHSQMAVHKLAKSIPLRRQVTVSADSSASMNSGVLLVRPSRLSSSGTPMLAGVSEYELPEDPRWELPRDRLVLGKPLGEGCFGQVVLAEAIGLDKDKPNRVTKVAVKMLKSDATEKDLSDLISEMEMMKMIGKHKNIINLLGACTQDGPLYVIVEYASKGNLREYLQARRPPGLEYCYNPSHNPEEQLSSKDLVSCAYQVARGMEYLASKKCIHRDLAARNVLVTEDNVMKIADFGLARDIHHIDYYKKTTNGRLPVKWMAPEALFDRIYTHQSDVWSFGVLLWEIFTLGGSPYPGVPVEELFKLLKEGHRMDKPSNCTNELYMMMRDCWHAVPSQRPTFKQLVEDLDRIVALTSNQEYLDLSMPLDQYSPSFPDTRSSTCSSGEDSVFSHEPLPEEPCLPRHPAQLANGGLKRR
Sequence of Fes (P07332 whole entry, looked up, the tested form may be a part): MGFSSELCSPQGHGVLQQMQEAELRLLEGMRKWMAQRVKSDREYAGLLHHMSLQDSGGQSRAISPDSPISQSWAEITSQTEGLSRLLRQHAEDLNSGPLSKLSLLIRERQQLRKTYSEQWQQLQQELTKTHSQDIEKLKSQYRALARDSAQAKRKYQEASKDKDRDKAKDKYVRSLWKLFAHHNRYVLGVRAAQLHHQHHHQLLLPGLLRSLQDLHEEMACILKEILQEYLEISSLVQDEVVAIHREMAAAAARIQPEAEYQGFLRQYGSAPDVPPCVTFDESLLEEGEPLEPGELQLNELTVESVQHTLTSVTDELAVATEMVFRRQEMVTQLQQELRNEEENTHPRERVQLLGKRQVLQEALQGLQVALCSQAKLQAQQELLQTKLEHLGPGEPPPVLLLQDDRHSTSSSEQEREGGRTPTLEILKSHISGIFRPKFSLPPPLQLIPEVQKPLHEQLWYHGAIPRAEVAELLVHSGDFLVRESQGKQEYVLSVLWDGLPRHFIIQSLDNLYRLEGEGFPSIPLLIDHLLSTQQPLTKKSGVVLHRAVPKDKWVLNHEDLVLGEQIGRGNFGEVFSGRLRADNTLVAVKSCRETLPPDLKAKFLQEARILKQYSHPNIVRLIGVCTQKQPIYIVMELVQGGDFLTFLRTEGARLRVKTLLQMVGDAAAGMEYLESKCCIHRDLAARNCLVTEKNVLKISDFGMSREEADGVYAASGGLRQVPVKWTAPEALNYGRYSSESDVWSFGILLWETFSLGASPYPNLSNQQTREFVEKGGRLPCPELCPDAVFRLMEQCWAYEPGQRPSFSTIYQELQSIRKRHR
Sequence of Hck (P08631 whole entry, looked up): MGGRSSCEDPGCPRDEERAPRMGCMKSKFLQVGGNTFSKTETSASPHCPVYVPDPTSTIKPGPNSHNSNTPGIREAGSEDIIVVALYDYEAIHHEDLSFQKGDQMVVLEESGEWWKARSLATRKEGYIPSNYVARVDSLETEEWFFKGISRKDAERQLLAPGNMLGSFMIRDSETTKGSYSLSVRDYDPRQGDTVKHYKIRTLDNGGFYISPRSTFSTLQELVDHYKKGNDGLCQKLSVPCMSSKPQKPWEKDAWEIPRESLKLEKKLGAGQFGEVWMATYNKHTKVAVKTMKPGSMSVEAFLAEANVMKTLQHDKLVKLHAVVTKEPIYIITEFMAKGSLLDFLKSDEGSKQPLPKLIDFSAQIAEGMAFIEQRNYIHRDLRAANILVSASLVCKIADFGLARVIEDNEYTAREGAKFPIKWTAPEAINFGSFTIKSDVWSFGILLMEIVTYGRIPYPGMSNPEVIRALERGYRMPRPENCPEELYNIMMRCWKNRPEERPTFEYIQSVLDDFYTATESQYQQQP

Sequence	SH2 binding enrichment (SHP2-C SH2)	SH2 binding enrichment (c-Src SH2)	SH2 binding enrichment (Grb2 SH2)	phosphorylation enrichment (Fer (mouse))	phosphorylation enrichment (c-Abl (mouse))	phosphorylation enrichment (Jak2)	phosphorylation enrichment (AncSZ)	phosphorylation enrichment (Fyn)	phosphorylation enrichment (FGFR1)	phosphorylation enrichment (c-Src)	phosphorylation enrichment (EPHB2)	phosphorylation enrichment (Hck)	phosphorylation enrichment (EPHB1)	phosphorylation enrichment (FGFR3)	phosphorylation enrichment (MERTK)	phosphorylation enrichment (Fes)
QRKPSYNQLAS [BRCA2_Y71]	1.14	1.06	1.59	0.244	0.471	0.598	0.449	0.399	0.543	0.415	0.53	0.345	0.344	0.642	0.392	0.53
FTFDPYSEEEP [IL2RB_Y387_D391E_YF]	0.971	0.654	1.04	0.549	0.733	0.917	1.22	0.59	0.602	0.907	0.576	0.584	0.874	0.811	0.469	1.49
DPHKIYEFVNS [IRF3_Y107]	0.766	0.609	0.902	18.1	4.23	0.729	0.984	9.53	1.77	8.03	19.2	10.3	18.2	1.51	10.3	7.43
PQGVRYIYTID [DCX_Y103]	15.4	0.618	0.772	1	1.37	2.21	1.73	4.01	0.726	4.09	0.951	1.6	0.943	1.15	0.856	5.16
TLSGIYQFIIA [FOXL2_Y81_YF]	1.13	1.24	1.49	15	2.71	1.2	1.81	6.83	10.4	5.96	9.15	8.44	14.2	7.18	10.1	3.16
ITVPAYFNDLQ [HSPA9_Y196_S200L]	0.722	0.583	1.15	0.524	0.766	1.15	1.13	0.452	0.555	0.468	0.495	0.538	0.705	0.77	0.431	1.3
EPYKVYRIVPE [IRF8_Y110]	0.646	0.598	0.762	0.447	0.473	0.658	0.746	0.641	0.521	0.605	0.54	0.574	0.474	0.612	0.462	0.728
LIYTNYEVGKD [GSTP1_Y112_A114V]	1.09	0.801	1.12	17.7	14.1	1.33	2.37	11.9	7.05	8.72	16.8	8.89	13.4	5.54	11.3	1.96
IIRFNYLLDVL [FGFR4_Y237_S232I_YF]	2.19	1.13	2.13	0.47	0.996	0.89	1.2	0.513	0.809	0.525	0.478	0.522	0.688	0.763	0.465	1.31
EFISESCGEII [EZH2_Y641_Y641S]	0.716	0.532	1	0.484	0.783	1.04	1.17	0.484	0.567	0.568	0.752	0.476	0.544	0.592	0.419	1.19
VAFLFYKSIGP [ADGRL4_Y302_V300L_YF]	0.457	0.301	0.542	0.55	1.12	1.98	1.38	0.5	0.739	0.558	0.664	0.488	0.689	0.837	0.523	1.6
EKLQQYLAPGM [EPHB3_Y600_I601L]	0.559	0.564	0.745	0.54	0.732	0.57	0.68	0.398	0.466	0.347	0.489	0.48	0.408	0.493	0.487	0.863
KILPEYLSNWT [AIFM1_Y347]	0.873	0.691	1.03	0.424	0.677	0.983	0.995	0.463	0.543	0.503	0.513	0.481	0.428	0.673	0.509	0.915
QFLMKYVWSAS [ABCD1_Y337]	0.668	0.499	0.677	0.565	0.929	1.42	1.15	0.3	0.513	0.559	0.541	0.587	0.582	0.759	0.528	1.49
FVHDNYVIWRT [CPS1_Y1450_R1453W]	0.847	0.827	1.11	1.26	1.14	1.11	1.28	0.577	2.79	0.721	7.37	1.26	6.57	1.8	1.45	1.16

The next lines start with results.

SH2 binding enrichment (SHP2-C SH2)	SH2 binding enrichment (c-Src SH2)	SH2 binding enrichment (Grb2 SH2)	Sequence	phosphorylation enrichment (Fer (mouse))	phosphorylation enrichment (c-Abl (mouse))	phosphorylation enrichment (Jak2)	phosphorylation enrichment (AncSZ)	phosphorylation enrichment (Fyn)	phosphorylation enrichment (FGFR1)	phosphorylation enrichment (c-Src)	phosphorylation enrichment (EPHB2)	phosphorylation enrichment (Hck)	phosphorylation enrichment (EPHB1)	phosphorylation enrichment (FGFR3)	phosphorylation enrichment (MERTK)	phosphorylation enrichment (Fes)
0.417	0.712	0.854	TTSQLYDAMPI [PDPK1_Y9_V12M]	12.4	0.706	0.665	0.986	6.16	0.537	3.9	6.17	8.57	8.16	0.809	9.19	0.794
0.592	1.22	0.651	DGYTDYAEFAK [MCFD2_Y138_I136T]	0.4	0.734	0.765	1.03	0.96	0.754	0.942	0.706	0.74	0.829	0.699	0.463	0.844
0.887	1.1	0.843	CTTIHYNYMYN [TP53_Y234_C238Y]	1.21	0.684	0.91	1.12	0.507	0.877	0.543	0.69	0.563	0.945	0.844	1	1.22
0.66	0.507	0.851	SSPVPYLSPET [TJP1_Y931]	0.453	0.646	0.719	0.789	0.541	0.482	0.422	0.502	0.445	0.442	0.627	0.409	0.835
0.654	0.341	1.36	HRGHLYLAIEY [TEK_Y899_Y897H]	0.741	0.599	0.977	1.51	0.447	0.942	0.344	1.16	0.572	1.08	1.23	0.495	1.56
0.691	1.44	0.934	LSIDRYHAIVF [NPSR1_Y147_YF]	0.444	0.941	2.75	1.56	0.833	1.22	0.976	1.04	0.861	0.753	1.44	1.81	1.3
2.14	2.29	1.73	LGKGSYAKVRS [TSSK2_Y23_K27R]	0.626	1.12	1.33	1.02	0.725	0.558	0.792	0.408	0.586	0.395	0.699	0.744	0.733
0.699	0.445	0.817	SADIAYNYRHG [PAH_Y166_F161S]	0.469	0.508	0.435	0.488	0.345	0.362	0.388	0.378	0.344	0.333	0.391	0.329	0.498
0.996	0.566	1.08	FIGVTYKNKED [PDGFRA_Y993_E996K_YF]	0.417	0.567	0.797	0.776	0.495	0.458	0.426	0.582	0.427	0.422	0.743	0.386	0.922
0.732	0.537	0.78	SVTCTYSSALN [TP53_Y126_P128S]	0.534	0.728	0.909	1	0.6	0.483	0.64	0.576	0.689	0.601	0.726	0.458	1
2.27	0.54	0.671	ETKTPYTVILI [SBDS_Y128_R126T]	1.06	0.651	0.961	0.999	0.483	0.592	0.485	0.637	0.569	0.543	0.794	0.534	1.22
0.871	0.547	1.15	KTGNIYRTEFG [MRPL3_Y265_M261T_YF]	0.35	0.457	0.468	0.585	0.437	0.517	0.349	0.377	0.435	0.422	0.491	0.413	0.542
0.44	0.468	0.844	SVTCTYSPALS [TP53_Y126_N131S]	0.508	1.42	1.42	2.15	0.424	0.396	0.719	0.645	0.553	0.673	0.697	0.42	1.63
0.727	0.591	0.881	YEREQYADRAR [RBM4_Y355]	0.441	0.531	0.575	0.701	0.37	0.495	0.338	0.432	0.439	0.383	0.534	0.29	0.707
